Measurements: patent US20260193370A1 (SUZHOU SUNCADIA BIOPHARMACEUTICALS, published 2026)

Tests used:
[1] = target: T1, human NGF protein (Sino biological, 11050-HNAC) (human, UniProt P01138 122-241); experiment: cell-based or functional assay
[2] = target: T1, human NGF protein (Sino biological, …); experiment: cell-based or functional assay; remark: listed apart in the source

T1 sequence (P01138 122-241 limits assumed): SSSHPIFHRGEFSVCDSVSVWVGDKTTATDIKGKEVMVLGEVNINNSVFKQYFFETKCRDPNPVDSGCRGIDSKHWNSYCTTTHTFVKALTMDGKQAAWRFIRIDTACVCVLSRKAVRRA

B1: Tanezumab (antibody, human IgG2, kappa, V domains shown)
VH: QVQLQESGPGLVKPSETLSLTCTVSGFSLIGYDLNWIRQPPGKGLEWIGIIWGDGTTDYNSAVKSRVTISKDTSKNQFSLKLSSVTAADTAVYYCARGGYWYATSYYFDYWGQGTLVTVSS
VL: DIQMTQSPSSLSASVGDRVTITCRASQSISNNLNWYQQKPGKAPKLLIYYTSRFHSGVPSRFSGSGSGTDFTFTISSLQPEDIATYYCQQEHTLPYTFGQGTKLEIKR
TF-1 cell proliferation-inhibiting activity, fold relative to bispecific antibody 1 [1]: ~4.2 fold | TF-1 cell proliferation-inhibiting activity, IC50 (TF-1 cells with human NGF, Cell-titer Glo) [2]: 0.759 nM
